The text below walks through data of US20190389958A1, “ANTI-CXCR4 ANTIBODIES” (MSM Protein Technologies, Inc., priority 2017, published 2019).

This experiment addresses human CXCR4 (human) (UniProt P61073). As to the kind of experiment: flow cytometry, IgG 10 µg/mL, CXCR4-expressing Ramos (RA1) cells.

Sequence of human CXCR4 (human) (P61073 whole entry): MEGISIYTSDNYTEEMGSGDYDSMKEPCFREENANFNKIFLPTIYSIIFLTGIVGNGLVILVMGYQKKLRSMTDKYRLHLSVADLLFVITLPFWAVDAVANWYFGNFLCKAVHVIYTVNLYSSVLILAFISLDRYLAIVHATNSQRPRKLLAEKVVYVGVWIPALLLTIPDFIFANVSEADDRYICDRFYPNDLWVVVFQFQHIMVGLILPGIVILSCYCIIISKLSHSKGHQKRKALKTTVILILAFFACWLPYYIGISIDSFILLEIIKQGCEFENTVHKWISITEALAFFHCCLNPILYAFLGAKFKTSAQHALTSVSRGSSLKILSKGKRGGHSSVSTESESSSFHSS

“human isotypic IgG1 kappa control (Coger Sarl, Paris, France) (antibody)” yielded an MFI of 42.
